# Results reported in patent publication US11041003B2, “Crystal structure of Staphylococcus aureus clumping factor A in complex with fibrinogen derived peptide and uses thereof” (THE TEXAS A&M UNIVERSITY SYSTEM, priority 2008, dated 2021).
# Where a SMILES comes first, the peptide text is derived from it.
# Assays:
# αIIbβ3 = αIIbβ3 (Homo sapiens, UniProt P05106+P08514); assay: Integrin (αIIbβ3) inhibition assay: inhibition of full length Fg binding to αIIbβ3; settings: 10 nM full length Fg, inhibitory ELISA type assay
# Protocol: For αIIbβ3 inhibition assay. αIIbβ3Immulon 4HBX Microtiter 96-well plates (Thermo) were coated with αIIbβ3 ([…]) in TBS (25 mM Tris, 3 mM KCl, 140 mM NaCl, pH 7.4) over night at 4° C. The wells were washed with TBS containing 0.05% (w/v) Tween-20 (TBST). After blocking with 3% (w/v) BSA dissolved in TBS for 1 h at RT, 10 nM of full length Fg was applied in the presence of either WT γ^1-17, γ^1-17D16A or γ^1-17K12A peptides and plates were incubated at RT for another hour. The bound full length Fg was then detected by goat anti human Fg (1:1000 dilution, Sigma) antibody followed by horseradish peroxidase-conjugated rabbit anti-goat IgG antibody (1:1000 dilution, Cappel). After incubation with 0.4 mg/ml of substrate, o-phenylenediamine dihydrochloride (OPD, Sigma) dissolved in phosphate-citrate buffer, pH 5.0, bound antibodies were determined in an ELISA reader at 450 nm. The proteins, antibodies and peptides were diluted in TBST containing 1% (w/v) BSA, 2 mM MgCl2, 1 mM of CaCl2 and MnCl2.
# To examine this possibility, the ability of the synthesized Fg WT g^1-17 and mutated peptides (g^1-17D16A and g^1-17K12A) to inhibit full length Fg binding to αIIbβ3 was analyzed by inhibitory ELISA type assay (FIG. 6).
# GST-Fg γ^1-17 = target: T1, GST-Fg γ^1-17 (Homo sapiens, UniProt P02679); assay: ELISA-type binding of ClfA proteins to immobilized GST-Fg γ^1-17; settings: GST Fg γ^1-17 coated in microtiter wells; read-out: apparent Kd for GST-Fg γ^1-17
# T1 construct: made in house; host or cells: Escherichia coli
Compound,inhibition of full length Fg binding to αIIbβ3 (αIIbβ3),inhibition of full length Fg binding to αIIbβ3 (αIIbβ3; listed as γ^1-17K12A),inhibition of full length Fg binding to αIIbβ3 (αIIbβ3; listed as Fg-γ^1-17),Kd (GST-Fg γ^1-17) [nM]
g^1-17K12A: Fg γ 395-411 peptide with Lys12→Ala (GEGQQHHLGGAAQAGDV),weakly inhibited,very little inhibitory effect,–,–
CC(C)C[C@H](NC(=O)[C@H](Cc1c[nH]cn1)NC(=O)[C@H](Cc1c[nH]cn1)NC(=O)[C@H](CCC(N)=O)NC(=O)[C@H](CCC(N)=O)NC(=O)CNC(=O)[C@H](CCC(=O)O)NC(=O)CN)C(=O)NCC(=O)NCC(=O)N[C@@H](C)C(=O)N[C@@H](CCCCN)C(=O)N[C@@H](CCC(N)=O)C(=O)N[C@@H](C)C(=O)NCC(=O)N[C@@H](CC(=O)O)C(=O)N[C@H](C(=O)O)C(C)C [g^1-17] (H-GEGQQHHLGGAKQAGDV-OH; N-terminus and C-terminus assumed),completely inhibited,–,inhibits,–
"ClfA229-545: recombinant His-tag ClfA construct, residues 229-545 of SEQ ID NO:35, composed only of the N2 N3 domains",–,–,–,222
